From the DeepSol protein solubility set

Experiment: soluble on expression in E. coli; label from the status in PepcDB or PDB records

Q: Which “soluble on expression in E. coli” value does the source give for “MGSDKIHHHHHHMKRMTKIGIYGMAVWMLSACGNGTPDYDATGTFEATEVIVSAEAAGKLLQLEVEEGTRLKAGEEVGLVDTVQLYLKKLQLEASMKSVESQRPDLAKQIAATKQQITTAQREKKRVENLLAAGAANQKQLDDWDAQVTLLQQQLIAQESSLMKSTNSLTEQGNSVSIQVAQVEDQLNKCHIQSPIEGTVLAKYAEGGELASVGKPLFKVGEVDRMYLRAYVTSEQLSQVKLGDKVTVYSDYGNSEQKAYPGVVTWISDRSEFTPKTILTKNERANLVYAVKIAVKNDGSLKIGMYGGVVWKKENP” here?
A: Its value is “not soluble”.

Q: With “MSLRHGIQAVFLIEKISKCNSLESLSLLVKERQAVFEAMIESHLPANVIGQVLMMIYDAFTCRLIKLAERNVGLPPCNYAWLAAGSHARGEVHLGSDQDNALVLDDSATESDRIYFRHFAMYICKGLAECGYPLCNGRFMAATPKWNQPLFIWKQLYRKWANNPEYNMLLNLNVFLEVRFISGDRSLFDELNSERERCTKNNPHLIAALVRNLISHRPPLGIFNNLVLENNGHNEKSLNIKKSAIGLLVDIARIYALHKGGGMLSTEERFDFAYDRGLINSTSHQDLIGTYRYVTQLRYSHQLQCLQGGKPVTNAIFPEHFGSFERQHLKDAFRIIRGYQDTLKMKFGSEGHHHHHH” as the sequence, how does the “soluble on expression in E. coli” value read?
A: The value was “soluble”.

Q: For “MTTVQTSVYEPLTEPKAVSLAVRLGLFRDGAPLACREIGDGNLNLVFHIVDQETKQGVIIKQALPYAKVVGESWPLTLKRAVIESNALRTFASYVPQYVPKVYYSDESLAITVMEDLSRLQIARKGLIEGKTYPLLSQHIGEFVAKTAFYTSDFGMNQQEKKKLAQSFVNPELCKITEDLVFTDPFFDHETNNFEDELRPDVEALWRDDRLHLEAAKLKRKFLTEADVLLHGDLHTGSIFVSADETKVIDPEFAFYGPIGFDLGQFFANLLLNALSRSELERQPLFDHIDRTWDVFASVFSNLWCTESVETYAATPGLLEDVLRHAFIDAVGFAGCEVIRRTIGLAHVADLDGIEHKDERLVAKRHALRLGRRLIIERRVFTGTEDFRRLFAETEQ”, which “soluble on expression in E. coli” value is on record?
A: Its value is “not soluble”.

Q: Which “soluble on expression in E. coli” value does the source give for “MGSDKIHHHHHHMKLLILGNHTCGNRGDSAIMRGLLDAIRQQAPEAEMDVMSRFPVSSAWLQGRPIIADPLYQLSQKQQAAAGLNGRVKKVLRRRFQHKILLSKVAQEGSLRNFAIAPEFAEFAQFIAQYDAVIQVGGSNYVDLYGLTHFEYPLCAFMANKPIYMVGHSVGPFQNPDFNQLANYVFGRTSALILRETVSRDLMTAAQIDTRKVEQGVDTAWLVERRHDEFVASYAVQHWLDVTARRKTVAITLRDLEPFDKRLGTTQQAYEQAFAQVVNRLIADGYQVLALSTCTSIDRYNRDDRMVALRMAKYVNDSENFHIAMDELNDVEIGKILASCVLTIGTRLHSAIISMNFGTPAIAINYEHKSAGIMQQLGLAELAIDIRHLLNGSLQSVVADTLNQLPALKAKVANAVTEERAKGFTMIKSVLDRIREAQ” here?
A: Its value is “not soluble”.

Q: With “MGSDKIHHHHHHMNGSATRTVAGVSVPDTTIVARTLDYARLEYEPYLFNHVVRSWLFAVRIAQLRNIDHDAEVVAVGTLLHDVTLNERFDGPRRFEVEGADLARVFAREGGVDERRAQLIWDSVALNSTPSIGLYKEAEVALCTAGIGLDVIGFQYERIPSEEIARIVQEYPRLNMKRRMTKCFCHIAEKRPETTYDNFVRDFGERHILGYRAPSSVDLVANAPFDE” as the sequence, how does the “soluble on expression in E. coli” value read?
A: The value was “not soluble”.

Q: For “LPYPIPIALTDALDRSVSAELVAVLVAVTQGEPRVLTTEDARALPAGPFELAHRSLQAGLRAWVETQTHHPLGYVEQLYTFADSDRSNEAGARVISVSYLGLTREAGATGVAQVGWQHWYRYFPWEDWRAGRPAIIADEIAPRLLAWAGAGADAAARAQRRQRVALTFGLDGAGWNEDMVLQRYELLFEAGLVPESRHPDASGLPVAGQSMRHDHRRILATGIAR”, which “soluble on expression in E. coli” value is on record?
A: Its value is “not soluble”.

Q: For “MLSLKLVSQLFKQSLASGNMAIVNTAGLKYFAPPIKYQNVEQPERPKLRVIERQPQLPPNIRPPKMQKRLRYMRGPEMVHNTLLHKQYAIVATGGGRLRWGHYEMMRLTIGRKMNVNTMFATWRVPAPWQPITKKGQGQRMGGGKGAIDHYVTPIKAGRVIVEIAGKCEFVEVKQFLQQVANQLPFQATVVSQEMLDEQRVAEEEQTRQNENPFTMKYVIQNNLSGCHRWLSPVDHKWFGKHLLEHHHHHH”, which “soluble on expression in E. coli” value is on record?
A: The value was “not soluble”.

Q: Which “soluble on expression in E. coli” value does the source give for “DQRRRFIEAVLSGVTAAVIGVGRDRRITIFNPSSEGMLKKAAPELIGANLSDVAPEIEAVLVEAESRYRNDYRKQINIMRGGTERTMNVQVTREEGDESHGSYVITVDDIT” here?
A: The value was “not soluble”.

Q: With “AHHHHHHGSEYKPIRKVVSGNYAAAYAALHARVQVVAAYPITPQTSIIEKIAEFIANGEADIQYIPVESEHSAMAACIGASATGARTFTATSAQGLALMHEMLHWAAGARLPIVMVDVNRAMAPPWSVWDDQTDSLSQRDTGWMQFYAENNQEVYDGVLMAYKVAETVNVPAMVVESAFILSHTYDVVEMIPQELVDEFLPPRKPLYSLANFDEPIAVGALATPNDYYEFRYKLAKAHEEAKKVIKEVGKEFGERFGRDYSQMIETGYIDDADFVFMGMGSLMGTVKEAVDLLRKEGYKVGYAKVRWFRPFPKEELVEIAESVKGIAVLDRNFSFGQEGILFTESKGALYNSSAHPLMKNYIVGLGGRDVTVKDIKAIADDMKKVIESGKVDKEVVWYHLKR” as the sequence, how does the “soluble on expression in E. coli” value read?
A: The value was “soluble”.

Q: Which “soluble on expression in E. coli” value does the source give for “MNIIKGNIASPLGFSADGLHAGFKKKKLDFGWIVSEVPANVAGVFTTNKVIAAPLKLTKNSIEKSGKMQAIVVNSGIANSCTGKQGEKDAFKMQQLAANKLQIQPEYVGVASTGVIGKVMPMSILKNGFSKLVKNGNADDFAKAILTTDTHTKTCVVNEEFGSDTVTMAGVAKGSGMIHPNLATMLAFITCDANISSQTLQQALKDVVEVTFNQITVDGDTSTNDMVLVMSNGCTNNNEIKKDSEDYYKFKQMLLYIMTDLAKSIARDGEGASKLIEVTVKGAKESSAARMIAKSVVGSSLVKTAIFGEDPNWGRIIAAAGYAKTYFDINQVDIFIGRIPVLIRSSPVKYDKEEIQEIMSAEEISIQLDLHQGNCEGQAWGCDLSYDYVKINALYTTLEHHHHHH” here?
A: The value was “not soluble”.

Q: Which “soluble on expression in E. coli” value does the source give for “KDINLYKGSIPSGKQQGVDAILISNPNLINILEQAKQKNTAQGSESTTNKIIGYTTTANVNVDNQNIFSVSKLNNEQFQRKIIVNATEETLDQSQTLQSNESIVLPMPGKYKSTDKNKVMITQGPNLIGIHANEKENIETKKFVNW” here?
A: Its value is “not soluble”.

Q: Which “soluble on expression in E. coli” value does the source give for “MRPIPEGYEAVFETVVTPEMTVRFEELGPVHPVYATYWMVKHMELAGRKIILPFLEEGEEGIGSYVEARHLASALPGMRVRVVARHEKTEGNRVYARVEAYNELGDLIGVGRTEQVILPKAKVEALFRRLKERWEAERSPS” here?
A: Its value is “soluble”.

Q: With “MNSDDEIYMEGSASSEDDMDDECLSDDDGIARHDQSASDYLNKKDKDNEVLDHDSLEAEMKKAISEVEAVLQVKTGVCRILLHKYKWNKESLLERFYEHPDTIAFLIDAQVIPRQQEVIPAGDAECDICCSMDELSGLSCNHRACAECWQAYLTNKIVSDAQSEIECMAPNCKLLIEDEKVLSYISDPTMVSKYRKLMVASYVEINCLLRWCPGIDCGKAVKVSHWEPRLVVCSCGTCFCFSCGQNWHEPLNCRHLKKWIKKCQDDSETMNWINANTKDCPKCMIPIEKNGGCNRMLCTNSGCRYEFCWMCLEPWTKHGYQYACNGYDETAVKNPQDAQEISRANLKRYLFYFNRYMGHEQSLQLEGKLNIKVAKKMEQMENMSMSWIEVQFLRKAVDILSECRRTLMYTYAFAFYLKKDNNSIIFESNQANLEMETEQLSGFLERDLEDEDLVTLKQKVQDKYRYVEQRRKVLLDHCAEGAEQDIWQYND” as the sequence, how does the “soluble on expression in E. coli” value read?
A: The value was “not soluble”.

Q: With “MCSYARATDANGESFIYCRTWQGQFFRFKLEDRVYDYVTTFAKSDACLATDPDDPTKIYCALNEYNKITCIDLTKNPEDSGFETDVCGIQGPGAYQDGHVSVARLNNPQQILSMHDPETGEKVIYICDANNNCVRMYNMETKLMSTVAGIGGKSGYAAGNPTVSRMNRPYGICITPENDIYVADAGNKVIMKLAFMLEHHHHHH” as the sequence, how does the “soluble on expression in E. coli” value read?
A: Its value is “not soluble”.

Q: With “MVTNRVVFLTGAASGIGYEMGNTFAKEGAKVVITDRLEERAKEAAEQLQKEGFQAIGLKCDVTSEEEIEASISQTVNHFGSLDILINNAGMQHVSPIEDFPTEKFELLIKIMQIAPFIAIKHAFPIMKKQKYGRIINVASINGLVGFAGKAAYNSAKHGVIGLTKVAALEGATHGITVNALCPGYVDTPLVRNQLQDLATTRNVPLENVLEDVIYPLVPQKRLLQVQEIADYAMFLASEKAKGITGQAVVIDGGYTAQ” as the sequence, how does the “soluble on expression in E. coli” value read?
A: Its value is “not soluble”.

Q: For “MIGVASSAVFDLLASDAVFQSQGEEEYRKFQQKNLHVPLPKGIAFPFIKRLLSVNDLSVDPTDPLVEVILLPRNDPDTGLRVLKTIEHYELGMTRAIFMQGKSPYEYIPALNIALFLSGDKKDVEAAIRAGYPAGQVLDSKFEDDETDKTLRIAFDFDGVLAGDESETIMQASGLSEFHSHEVKNVMQPHNPGPLKEFMVRISKIQSVEEKHKKLNPKYENRIRVSIVTARNAPSHERAMNTLKSWGVMANDAFFLGGIEKGKILSVLKPHIFFDDQSGHLKSTSAVAPSVHIPFGITNHVSTVDAIEPEADQVQQVV”, which “soluble on expression in E. coli” value is on record?
A: Its value is “not soluble”.

Q: Which “soluble on expression in E. coli” value does the source give for “SSTFSASDFNSERYSSSRPSYPSDFYKMIDEYHDGERKLLVDVGCGPGTATLQMAQELKPFEQIIGSDLSATMIKTAEVIKEGSPDTYKNVSFKISSSDDFKFLGADSVDKQKIDMITAVECAHWFDFEKFQRSAYANLRKDGTIAIWGYADPIFPDYPEFDDLMIEVPYGKQGLGPYWEQPGRSRLRNMLKDSHLDPELFHDIQVSYFCAEDVRDKVKLHQHTKKPLLIRKQVTLVEFADYVRTWSAYHQWKQDPKNKDKEDVADWFIKESLRRRPELSTNTKIEVVWNTFYKLGKRV” here?
A: Its value is “soluble”.

Q: With “MISIPVAQQQKLPRLVLPRVYGFPPNRETLGGTAYLIVENDGNTLIDSPPWTDGSQHWLREQGGVKRLILTHRGAIARVRAIQDTFDCEVMIHAQEAYLLPQVTVTPFNHHLAIGETLEILWTPGHSPGSACVYWSCQGGVLFTGRHLLPTPTGELAPIKTATTFHWPRQLRSVEALKAFCRQKSLSYLCPGANMGFLRGTLAIANAQAVLQGLSVDNLLCDKFLEHHHHHH” as the sequence, how does the “soluble on expression in E. coli” value read?
A: The value was “not soluble”.

Q: For “MSLEMYPKIEDIKASYQNYCEFLEKVNTINLLKHKGKYIHYEDFNDNQIKRKIEKLESSILKTNVKYQKGAYIIYYKLRPGVIEFLRTMSEKYEIYLYTMGTLEHAKSCLFLLDPLRKFFGNRVFSRKDCLNSLKHLNKILPTYRSVSICIDDSDYIWKENSSCIKVHGYNYFPDINFFEDIKRAPYFLTKFFTFAQSYLNFTSNIYRFINFKCSEHEEFLKEGHHHHHH”, which “soluble on expression in E. coli” value is on record?
A: The value was “not soluble”.

Q: For “MGIGKEIRLERIMNRETRKTIIVPMDHGVSSGPIEGIVNIREAVEKVAEGGANAVVLHKGMVRAGHRGRGRDIGLIVHLSASTDLSPRKNDKVLVCTVEEAIRLGADAVSIHVNIGAEGEREMLKDFGYVSKVCEEWQMPLLAMVYGRGPKIENQYDPKVVAHCARVGAELGADIVKVPYTGDPETFKLAIEGSPIPVVIAGGPKMKSEREVLEMVQGAMQAGAAGLSIGRNIFQAKDPAKMVRAMSLIVHEGKSVEEAFEILK”, which “soluble on expression in E. coli” value is on record?
A: Its value is “not soluble”.
